Laboratory results published in patent publication US20230374147A1 (HUMMINGBIRD BIOSCIENCE PTE, published 2023).
Substitutions are numbered along the chain they refer to.

Experiments:
[1] = target: T1, His-tagged cynomolgous macaque BCMA (Acro Biosystems, BCA-C52H7) (cynomolgus macaque, UniProt Q02223 1-54 (human entry)); assay: ELISA, coated His-tagged cynomolgus BCMA
T1 construct: Bought protein; also called cyno BCMA; CyBCMA; not shown: His tag

[2] = target: T2, His-tagged human BCMA (Acro Biosystems, Cat. #BCA-H522y) (human, UniProt Q02223 1-54); assay: BLI, His-tagged human BCMA on HIS1K tip; R2 0.9957
T2 construct: also called huBCMA; P1; not shown: His tag
T2 sequence: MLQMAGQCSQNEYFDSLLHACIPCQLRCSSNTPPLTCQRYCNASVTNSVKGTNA

[3] = target: T3, Cyno TACI-His (Sino Biological, 90976-C08H) (cynomolgus macaque, UniProt G7PTR7 1-165); assay: ELISA, coated Cyno TACI-His
T3 construct: Bought protein; also called cynomolgous macaque TACI; CyTACI
T3 sequence: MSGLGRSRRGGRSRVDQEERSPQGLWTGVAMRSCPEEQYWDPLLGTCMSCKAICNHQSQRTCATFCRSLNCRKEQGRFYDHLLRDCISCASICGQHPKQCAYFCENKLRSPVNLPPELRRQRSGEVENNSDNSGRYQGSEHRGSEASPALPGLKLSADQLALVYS

[4] = target: T2, His-tagged human BCMA (Acro Biosystems, …); assay: BLI, His-tagged human BCMA on HIS1K tip
[5] = target: T4, His-tagged mouse BCMA (Acro Biosystems, BCA-M52H3) (mouse, UniProt O88472 1-49); assay: BLI, His-tagged mouse BCMA on HIS1K tip
T4 construct: Bought protein; not shown: His tag
T4 chain: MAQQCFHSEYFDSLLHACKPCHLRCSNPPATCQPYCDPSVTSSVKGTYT

[6] = target: T2, His-tagged human BCMA (Acro Biosystems, …); assay: competition ELISA: His-tagged human BCMA binding to coated APRIL-Fc in the presence of the antibody
[7] = target: T2, His-tagged human BCMA (Acro Biosystems, …); assay: ELISA, coated His-tagged human BCMA
[8] = target: T5, Human BCMA-His (Sino Biological, 10620-H08H) (human, UniProt Q02223 1-54); assay: ELISA, coated Human BCMA-His
T5 construct: not shown: His tag
T5 sequence: T2 sequence

[9] = target: T6, human TACI expressed on cells (human, UniProt O14836 1-293); assay: flow cytometry, HEK 293 cells transiently expressing human TACI
T6 construct: also called wildtype human TACI
T6 sequence: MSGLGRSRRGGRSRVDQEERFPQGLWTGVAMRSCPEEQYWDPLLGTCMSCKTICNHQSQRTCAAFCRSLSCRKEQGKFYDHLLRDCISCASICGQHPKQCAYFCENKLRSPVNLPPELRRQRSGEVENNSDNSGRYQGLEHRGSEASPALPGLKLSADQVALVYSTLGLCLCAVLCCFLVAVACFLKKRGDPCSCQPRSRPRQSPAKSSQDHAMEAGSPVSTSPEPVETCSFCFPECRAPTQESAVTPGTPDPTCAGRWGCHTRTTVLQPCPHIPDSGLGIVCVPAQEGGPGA

[10] = target: T7, recombinant his-tagged human TACI (Sinobiological cat #11937-H08H) (human, UniProt O14836 1-165); assay: ELISA, coated His-tagged human TACI
T7 construct: Bought protein; also called Human TACI-His; huTACI; not shown: His tag
T7 sequence: T3 sequence with S21F, A52T, T64A, N70S, R77K, S139L, L160V

[11] = target: T1, His-tagged cynomolgous macaque BCMA …; assay: BLI, His-tagged cynomolgus BCMA on HIS1K tip
[12] = target: T8, human BCMA expressed on cells (human, UniProt Q02223 1-184); assay: flow cytometry, HEK 293 cells expressing human BCMA
T8 construct: the cell line is named under assay; also called wildtype human BCMA
T8 sequence: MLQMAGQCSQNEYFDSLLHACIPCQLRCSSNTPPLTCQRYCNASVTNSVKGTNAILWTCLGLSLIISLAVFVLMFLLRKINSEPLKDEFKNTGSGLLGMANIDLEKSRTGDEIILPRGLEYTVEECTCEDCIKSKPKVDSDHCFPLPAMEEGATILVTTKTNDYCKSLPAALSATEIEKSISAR

[13] = target: T1, His-tagged cynomolgous macaque BCMA …; assay: ELISA, coated Cyno BCMA-His
[14] = target: T9, Human HER3-His (Sino Biological, 10201-H08H) (human, UniProt P21860 20-643); assay: ELISA, coated Human HER3-His
T9 construct: Specificity control; also called Human HERS-His

[15] = target: T2, His-tagged human BCMA (Acro Biosystems, …); assay: ELISA, reference antibody, coated His-tagged antigen
[16] = target: T2, His-tagged human BCMA (Acro Biosystems, …); assay: BLI, His-tagged human BCMA on HIS1K tip, no APRIL; R2 0.9957
[17] = target: T8, human BCMA expressed on cells; assay: flow cytometry, H929 cells (BCMA-expressing)
[18] = target: T2, His-tagged human BCMA (Acro Biosystems, …); assay: ELISA, coated His-tagged human BCMA; remark: listed apart in the source

B1: J6M0 (antibody, V domains shown)
VH: QVQLVQSGAEVKKPGSSVKVSCKASGGTFSNYWMHWVRQAPGQGLEWMGATYRGHSDTYYNQKFKGRVTITADKSTSTAYMELSSLRSEDTAVYYCARGAIYDGYDVLDNWGQGTLVTVSS
VL: DIQMTQSPSSLSASVGDRVTITCSASQDISNYLNWYQQKPGKAPKLLIYYTSNLHSGVPSRFSGSGSGTDFTLTISSLQPEDFATYYCQQYRKLPWTFGQGTKLEIK
notes: also called J6M0-hIgG1; anti-BCMA
With B1 the “EC50 (read off the curve)” value [1] was about 0.01 mg/L, the Kd [2] was under 0.001 nM and the binding result [3] was “no binding (tested: log M about -7.7 (3 ug/ml per paragraph 742))”. For the same binder, the “Human BCMA response” value [4] was 2.53, the “Mouse BCMA response” value [5] was 0.0423 and the IC50 [6] was 0.92 nM. The EC50 [7] was 0.044 nM, the EC50 [8] was 0.018 nM and the binding result [9] was “no binding (tested: 10 ug/ml)”. For the same binder, the binding result [10] was “no binding (tested: 10 ug/ml)”, the “Cyno BCMA response” value [11] was 2.16 and the EC50 [12] was 10.1 nM. The EC50 [13] was 0.015 nM, the binding result [14] was “no binding (tested: log M about -7.7 (3 ug/ml per paragraph 742))” and the EC50 [15] was 0.0126 mg/L. For the same binder, the Kd [16] was under 0.001 nM, the “EC50 (read off the curve)” value [17] was about 1 mg/L and the “EC50 (read off the curve)” value [18] was about 0.007 mg/L.
